Results: patent publication US10753941B2, “Biocompatible nanoparticles with aggregation induced emission characteristics as fluorescent bioprobes and methods of using the same for in vitro and in vivo imaging” (The Hong Kong University of Science and Technology, priority 2011, dated 2020)

Tests used:
[1] = Water solubility / aggregation of probes in water (LLS, PL); type: physicochemical; settings: inferred from weak fluorescence / LLS
Excerpt: FIG. 32A illustrates the UV-vis absorption spectra of BATPS (5) and TPS-2cRGD. Both have a similar absorption profile with the maximum at 356 nm. The corresponding photoluminescence (PL) spectra are shown in FIG. 32B, along with the photographs taken under UV irradiation. It is known that AIE fluorogens are virtually non-fluorescent in good solvents but emit intensely when aggregated in poor solvents.
It is well known that AIE dye is virtually non-luminescent in good solvents but emits intensely when aggregated in its poor solvents. […] The excited states are readily annihilated by the intramolecular rotations of phenyl rings. Therefore, very low fluorescence was observed.

caspase-3 = target: T1, caspase-3 (Homo sapiens, UniProt P42574); test: Caspase-3 turn-on and hydrolysis of E/Z-TPE-2DEVD; type: biochemical
T1 construct: purchased R&D Systems
T1 sequence (P42574 29-175 limits assumed): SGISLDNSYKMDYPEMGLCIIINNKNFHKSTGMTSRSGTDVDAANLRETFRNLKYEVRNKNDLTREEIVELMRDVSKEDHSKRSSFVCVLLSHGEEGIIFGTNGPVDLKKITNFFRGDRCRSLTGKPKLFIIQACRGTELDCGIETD
T1 sequence (P42574 176-277 limits assumed): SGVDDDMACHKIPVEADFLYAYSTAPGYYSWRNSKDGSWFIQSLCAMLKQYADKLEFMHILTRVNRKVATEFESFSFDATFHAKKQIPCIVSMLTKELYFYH
Experimental: Both have a similar absorption profile with an obvious absorbance in the 270-380 nm range.
The enzyme kinetic studies by incubating recombinant caspase-3 with E/Z-TPE-2DEVD in buffer at 37° C. were subsequently performed, and the changes in probe hydrolysis were monitored with HPLC. DMSO stock solutions of TPE-2DEVD were diluted with caspase-3assay buffer (50 mM PIPES, 100 mM NaCl, 1 mM EDTA, 0.1% w/v CHAPS, 25% w/v sucrose, pH=7.2) to make 10 μM working solutions. 5 μL of the recombinant caspase-3 (˜0.04 μg/μL stock solution in assay buffer) was added into the above working solution. The reaction mixture was incubated at room temperature for 60 min and was then diluted to a total of 300 μL with deionized water for photoluminescence measurement. The solution was excited at 312 nm, and the emission was collected from 360 to 600 nm.

[2] = tested on: caspase-3, pepsin, BSA, trypsin, papain and lysozyme; settings: protein 100 pM, identical conditions
Experimental: To further investigate the probe selectivity, Z-TPE-2DEVD was treated with several proteins, such as caspase-3, pepsin, BSA, trypsin, papain and lysozyme, under identical conditions.

Substance: Z-TPE-2DEVD: stereoisomer of Asp-Glu-Val-Asp (DEVD) peptide-conjugated TPE probe (TPE-2DEVD)
- solubility in water [1]: good solubility in water
- fluorescence turn-on with caspase-3 (caspase-3; 10 μM probe, PIPES buffer, caspase-3 100 pM, 37° C.): stronger fluorescence enhancement
- rate of enzyme activated hydrolysis (HPLC) (caspase-3; recombinant caspase-3 in buffer): slower hydrolysis rate
- probe selectivity, changes in (I−I0)/I0 [2]: specific probe for caspase-3
